Target: CD1d(endogenous lipid)-β2M complex, as crystallized with VHH1D17 (Homo sapiens, UniProt P15813;P61769)

binding result: binds
B1: VHH1D5 (VHH)
VHH: EVQLVESGGGLVQAGGSLRLSCAASGSSFSSYTMGWFRQAPGKEREIVAGIRWSDESPIYADSVKGRFTISRDNAKNTLYLQMNSLKPEDTAVYYCAARLVPPGIPIPRTSESMRYWGKGTLVTVSS
